How the values were obtained:
huVEGF 165 (human) [1] = experiment: indirect ELISA on coated huVEGF, antibody at 3.2 ng/ml
huVEGF 165 (human) [2] = experiment: indirect ELISA, huVEGF coated at 0.5 ug/ml, four-parameter fit
huVEGF 165 (human) [3] = experiment: indirect ELISA on coated huVEGF, antibody at 0.64 ng/ml
huVEGF 165 (human) [4] = experiment: indirect ELISA on coated huVEGF, antibody at 16 ng/ml
huVEGF 165 (human) [5] = experiment: indirect ELISA on coated huVEGF, antibody at 0.00512 ng/ml
huVEGF 165 (human) [6] = experiment: indirect ELISA on coated huVEGF, antibody at 400 ng/ml
huVEGF 165 (human) [7] = experiment: indirect ELISA on coated huVEGF, antibody at 80 ng/ml
huVEGF 165 (human) [8] = experiment: indirect ELISA on coated huVEGF, antibody at 0.128 ng/ml
huVEGF 165 (human) [9] = experiment: indirect ELISA on coated huVEGF, antibody at 0.0256 ng/ml

Chain of huVEGF 165 (human) (chain, as listed by the source, form in doubt): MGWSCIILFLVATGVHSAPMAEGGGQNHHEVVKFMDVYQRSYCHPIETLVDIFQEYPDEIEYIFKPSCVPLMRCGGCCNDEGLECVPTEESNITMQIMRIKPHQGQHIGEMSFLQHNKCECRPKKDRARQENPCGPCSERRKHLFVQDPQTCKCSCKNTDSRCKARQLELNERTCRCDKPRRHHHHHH

B1: NevegiMab抗体 (antibody, V domains shown)
VH: EVKLQESGPELKKPGETVKISCKASGYTFTNYGLNWVKQAPGKGLKWMGWINTYTGEPTYADDFKGRFAFSLETSASTAYLQINNLKNEDMATYFCAKYGITYEWYFDVWGAGTTVTVSS
VL: DIVLTQSTSSLSASLGDRVTISCRASQDISNSLNWYQQKPNGTVILLIYYTSRLHSGVPSRFSGSGSGAVYSLTISDLEQEDIATYFCQQGNTFPWTFGGGTKLEIKR
- OD450 复孔1 (huVEGF 165 (human) [1]): 1.83 OD450
- OD450 复孔2 (huVEGF 165 (human) [1]): 1.92 OD450
- OD平均 (huVEGF 165 (human) [1]): 1.87 OD450
- EC50 (huVEGF 165 (human) [2]): 0.02 nM
- OD450 复孔1 (huVEGF 165 (human) [3]): 0.572 OD450
- OD450 复孔2 (huVEGF 165 (human) [3]): 0.614 OD450
- OD平均 (huVEGF 165 (human) [3]): 0.59 OD450
- OD450 复孔1 (huVEGF 165 (human) [4]): 3 OD450
- OD450 复孔2 (huVEGF 165 (human) [4]): 2.9 OD450
- OD平均 (huVEGF 165 (human) [4]): 2.95 OD450
- OD450 复孔1 (huVEGF 165 (human) [5]): 0.115 OD450
- OD450 复孔2 (huVEGF 165 (human) [5]): 0.118 OD450
- OD平均 (huVEGF 165 (human) [5]): 0.12 OD450
- OD450 复孔1 (huVEGF 165 (human) [6]): 3.53 OD450
- OD450 复孔2 (huVEGF 165 (human) [6]): 3.44 OD450
- OD平均 (huVEGF 165 (human) [6]): 3.49 OD450
- OD450 复孔1 (huVEGF 165 (human) [7]): 3.33 OD450
- OD450 复孔2 (huVEGF 165 (human) [7]): 3.31 OD450
- OD平均 (huVEGF 165 (human) [7]): 3.32 OD450
- OD450 复孔1 (huVEGF 165 (human) [8]): 0.208 OD450
- OD450 复孔2 (huVEGF 165 (human) [8]): 0.214 OD450
- OD平均 (huVEGF 165 (human) [8]): 0.21 OD450
- OD450 复孔1 (huVEGF 165 (human) [9]): 0.132 OD450
- OD450 复孔2 (huVEGF 165 (human) [9]): 0.135 OD450
- OD平均 (huVEGF 165 (human) [9]): 0.13 OD450

Source: CN105330739A
